Results published in patent publication US20030119727A1 (Genentech, published 2003).

T1: recombinant human Factor VIIa (human), P08709
T1 chain 1: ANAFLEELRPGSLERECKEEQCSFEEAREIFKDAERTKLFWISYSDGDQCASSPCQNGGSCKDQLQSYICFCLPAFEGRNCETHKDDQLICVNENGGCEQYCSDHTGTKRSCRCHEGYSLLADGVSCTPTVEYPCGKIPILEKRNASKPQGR
T1 chain 2: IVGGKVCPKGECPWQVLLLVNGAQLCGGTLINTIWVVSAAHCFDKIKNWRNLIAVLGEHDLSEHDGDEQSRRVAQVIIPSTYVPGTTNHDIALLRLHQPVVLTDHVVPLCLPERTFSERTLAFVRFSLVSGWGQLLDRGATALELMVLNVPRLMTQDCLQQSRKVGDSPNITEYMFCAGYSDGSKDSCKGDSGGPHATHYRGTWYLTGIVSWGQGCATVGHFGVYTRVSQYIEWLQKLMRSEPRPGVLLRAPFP


Target: T1, recombinant human Factor VIIa (human), …
Assay: competition ELISA
Conditions: modification not given

Binder | IC50 [nM]
ALCDDPRVDRWYCQQVEG [TF191] | 20300
ALCDDPRVDRWYCQF [TF90] | 168
ALCDDPRVDRWYCAFVEG [TF179] | 32
ALCADPRVDRWYCQFVEG [TF107] | 10
ALCDDPRVDRWYCQAVEG [TF115] | 20000
VGALCDDPRVDRWYCQFVE [TF75] | 6
ALCDDPRLDRWYCQFVEG [TF128] | 141
ALCDDPRVNRWYCQFVEG [TF97] | 1200
ALCDDPRVDRWYCYFVEG [TF132] | 85
ALCDDPEVDRWYCQFVEG [TF96] | 257
LCDDPRVDRWYCQFVEG [TF77] | 248
ALCDDPRVQRWYCQFVEG [TF161] | 8620
ALCDDPRVSRWYCQFVEG [TF162] | 359
AACDDPRVDRWYCQFVEG [TF155] | 9780
ALCDAPRVDRWYCQFVEG [TF108] | 104
ATCDDPRVDRWYCQFVEG [TF318] | 75000
ALCDDPRVDRWYCQFV [TF89] | 298
ALCDDPAVDRWYCQFVEG [TF109] | 110
ALCDRPRVDRWYCQFVEG [TF95] | 123
ALCDDPRIDRWYCQFVEG [TF121] | 3
ALADDPRVDRWYAQFVEG [TF119] | > 100000

Results, then the binder that gave them:

IC50 [nM] | Binder
> 100000 | ALCDDPRVDRHYCQFVEG [TF152]
2 | ALCDNPRVDRWYCQFVEG [TF106]
988 | AVCDDPRVDRWYCQFVEG [TF317]
100000 | ALCDDPRVDRWYC [TF180]
5 | VGALCDDPRVDRWYCQFVEG [TF74]
698 | ALCDDPRVDRWYCQYVEG [TF146]
2300 | EGTLCDDPRIDRWYCMFSGV [TF58]
42000 | AKCDDPRVDRWYCQFVEG [TF320]
100000 | LCDDPRIDRWYCQF [TF63]
250000 | LCDDPRIDRWYCMF [TF61]
24000 | AMCDDPRVDRWYCQFVEG [TF319]
20 | ALCDDARVDRWYCQFVEG [TF178]
485 | ALCDDPRVDRWFCQFVEG [TF144]
4960 | ALCDDPRVDRFYCQFVEG [TF131]
90300 | CDDPRVDRWYCQFVEG [TF156]
109 | ALCDEPRVDRWYCQFVEG [TF120]
> 50000 | ALCDDPRVDRAYCQFVEG [TF114]
396 | ALCDDPRVDAWYCQFVEG [TF112]
> 50000 | ALCDDPRVDRWACQFVEG [TF145]
2560 | ALCDDPRVDQWYCQFVEG [TF98]
716 | ALCDDPRADRWYCQFVEG [TF129]
28 | ALCRDPRVDRWYCQFVEG [TF127]
330 | ALCDDPRVARWYCQFVEG [TF110]
147 | ALCDDPRVERWYCQFVEG [TF111]
10500 | ALCDDPRVDPWYCQFVEG [TF113]
93 | ALCDDPRVDKWYCQFVEG [TF130]
438 | ALCDDPRVDRWYCQLVEG [TF189]
